Reference: patent US10766960 (dated 2020)

T1: FcgRIIa H (human, UniProt P12318)
T1 chain: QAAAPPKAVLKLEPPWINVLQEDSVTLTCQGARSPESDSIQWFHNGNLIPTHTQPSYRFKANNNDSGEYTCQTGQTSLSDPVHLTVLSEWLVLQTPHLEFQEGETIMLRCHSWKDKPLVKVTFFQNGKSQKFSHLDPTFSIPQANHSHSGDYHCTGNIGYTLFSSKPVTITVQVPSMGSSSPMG

T2: FcgRIa (human, UniProt P12314)
T2 chain: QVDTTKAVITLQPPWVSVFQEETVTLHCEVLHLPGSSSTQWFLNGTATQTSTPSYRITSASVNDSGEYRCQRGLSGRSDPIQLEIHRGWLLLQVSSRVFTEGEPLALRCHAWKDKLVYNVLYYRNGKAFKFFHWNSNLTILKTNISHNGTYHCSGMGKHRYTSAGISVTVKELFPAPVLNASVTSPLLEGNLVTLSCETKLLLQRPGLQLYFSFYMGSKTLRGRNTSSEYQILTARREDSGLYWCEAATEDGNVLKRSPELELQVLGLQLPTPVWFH

T3: FcgRIIb (human, UniProt P31994)
T3 chain: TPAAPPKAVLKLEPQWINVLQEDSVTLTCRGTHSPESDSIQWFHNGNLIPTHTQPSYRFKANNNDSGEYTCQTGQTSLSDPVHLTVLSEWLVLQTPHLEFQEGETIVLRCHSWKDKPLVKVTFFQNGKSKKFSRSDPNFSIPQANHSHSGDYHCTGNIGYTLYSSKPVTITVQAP

T4: FcgRIIa R (human, UniProt P12318)
T4 chain: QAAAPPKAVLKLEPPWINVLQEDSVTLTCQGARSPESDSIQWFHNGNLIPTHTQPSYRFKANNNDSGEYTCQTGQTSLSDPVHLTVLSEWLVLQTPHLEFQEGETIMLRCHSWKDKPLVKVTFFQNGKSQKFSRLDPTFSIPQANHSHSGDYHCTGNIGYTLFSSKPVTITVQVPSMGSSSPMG


Assays:
Assay in all cases: SPR
[1] = target: T1, FcgRIIa H
[2] = target: T2, FcgRIa
[3] = target: T3, FcgRIIb
[4] = target: FcgRIIIa F (human, UniProt P08637)
[5] = target: FcgRIIIa V (human, UniProt P08637)
[6] = target: T4, FcgRIIa R

FcgRIIIa F, sequence (P08637 17-208): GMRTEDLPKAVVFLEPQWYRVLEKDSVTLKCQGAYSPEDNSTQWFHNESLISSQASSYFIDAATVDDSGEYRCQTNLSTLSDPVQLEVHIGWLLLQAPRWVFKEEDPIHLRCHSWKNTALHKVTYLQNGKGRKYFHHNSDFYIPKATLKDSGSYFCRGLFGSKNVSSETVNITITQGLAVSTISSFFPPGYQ
FcgRIIIa V, sequence (P08637 17-208 F176V): as the sequence (P08637 17-208) above, with F160V counted along it

Kd [1] [nM]	Kd [2] [nM]	Kd [3] [nM]	Kd [4] [nM]	Kd [5] [nM]	Kd [6] [nM]	Binder
57	0.25	160	2	0.22	29	H240-Kn172/H240-Hl177/L73-k0 (antibody) chain 1: QDQLVQSGAEVKKPGASVKVSCKASGFNIKDTYIQWVRQAPGQGLEWMGRIDPLRKQTKYREKFEGRVTITADTSTNTAYMELSSLRSEDTAVYYCVRSGREFDYWGQGTLVTVSSASTKGPSVFPLAPSSKSTSGGTAALGCLVKDYFPEPVTVSWNSGALTSGVHTFPAVLQSSGLYSLSSVVTVPSSSLGTQTYICNVNHKPSNTKVDKKVEPKSCDKTHTCPPCPAPEYYWGPMVFLFPPKPKDTLMISRTPEVTCVVVDVSDEDPEVKFNWYVDGVEVHNAKTKPREEQYNATYRVVSVLTVLHQDWLNGKEYKCKVSNKDLPAPMEKTISKAKGQPREPQVCTLPPSRDELTKNQVSLWCLVKGFYPSDIAVEWESNGQPENNYKTTPPVLDSDGSFFLYSKLTVDKSRWQQGNVFSCSVMHEALHNHYTQKSLSLSP chain 2: QDQLVQSGAEVKKPGASVKVSCKASGFNIKDTYIQWVRQAPGQGLEWMGRIDPLRKQTKYREKFEGRVTITADTSTNTAYMELSSLRSEDTAVYYCVRSGREFDYWGQGTLVTVSSASTKGPSVFPLAPSSKSTSGGTAALGCLVKDYFPEPVTVSWNSGALTSGVHTFPAVLQSSGLYSLSSVVTVPSSSLGTQTYICNVNHKPSNTKVDKKVEPKSCDKTHTCPPCPAPELLGGPSVFLFPPKPKDTLMISRTPEVTCVVVDVSHEEPEVKFNWYVDGVEVHNAKTKPREEQYNSTYRVVSVLTVLHQDWLNGKEYKCKVSNDALPKPQEETISKAKGQPREPQVYTLPPSRCELTKNQVSLSCAVKGFYPSDIAVEWESNGQPENNYKTTPPVLDSDGSFFLVSKLTVDKSRWQQGNVFSCSVMHEALHNHYTQKSLSLSP chain 3: DIQMTQSPSSLSASVGDRVTITCRASQDIHKYIAWYQQKPGQAPRLLIQYTSTLQPGVPSRFSGSGSGTDYTFTISSLQPEDIATYYCLQYEQLRTFGGGTKVEIKRTVAAPSVFIFPPSDEQLKSGTASVVCLLNNFYPREAKVQWKVDNALQSGNSQESVTEQDSKDSTYSLSSTLTLSKADYEKHKVYACEVTHQGLSSPVTKSFNRGEC
55	0.14	130	0.51	0.036	30	H240-Kn120/H240-Hl174/L73-k0 (antibody) chain 1: QDQLVQSGAEVKKPGASVKVSCKASGFNIKDTYIQWVRQAPGQGLEWMGRIDPLRKQTKYREKFEGRVTITADTSTNTAYMELSSLRSEDTAVYYCVRSGREFDYWGQGTLVTVSSASTKGPSVFPLAPSSKSTSGGTAALGCLVKDYFPEPVTVSWNSGALTSGVHTFPAVLQSSGLYSLSSVVTVPSSSLGTQTYICNVNHKPSNTKVDKKVEPKSCDKTHTCPPCPAPEYYWGPMVFLFPPKPKDTLMISRTPEVTCVVVDVSDEDPEVKFNWYVDGVEVHNAKTKPREEQYNATYRVVSVLTVLHQDWLNGKEYKCKVSNKDLPAPIEKTISKAKGQPREPQVCTLPPSRDELTKNQVSLWCLVKGFYPSDIAVEWESNGQPENNYKTTPPVLDSDGSFFLYSKLTVDKSRWQQGNVFSCSVMHEALHNHYTQKSLSLSP chain 2: QDQLVQSGAEVKKPGASVKVSCKASGFNIKDTYIQWVRQAPGQGLEWMGRIDPLRKQTKYREKFEGRVTITADTSTNTAYMELSSLRSEDTAVYYCVRSGREFDYWGQGTLVTVSSASTKGPSVFPLAPSSKSTSGGTAALGCLVKDYFPEPVTVSWNSGALTSGVHTFPAVLQSSGLYSLSSVVTVPSSSLGTQTYICNVNHKPSNTKVDKKVEPKSCDKTHTCPPCPAPELLGGPSVFLFPPKPKDTLMISRTPEVTCVVVDVSHEEPEVKFNWYVDGVEVHNAKTKPREEQYNSTYRVVSVLTVLHQDWLNGKEYKCKVSNDALPKPEEETISKAKGQPREPQVYTLPPSRCELTKNQVSLSCAVKGFYPSDIAVEWESNGQPENNYKTTPPVLDSDGSFFLVSKLTVDKSRWQQGNVFSCSVMHEALHNHYTQKSLSLSP chain 3: DIQMTQSPSSLSASVGDRVTITCRASQDIHKYIAWYQQKPGQAPRLLIQYTSTLQPGVPSRFSGSGSGTDYTFTISSLQPEDIATYYCLQYEQLRTFGGGTKVEIKRTVAAPSVFIFPPSDEQLKSGTASVVCLLNNFYPREAKVQWKVDNALQSGNSQESVTEQDSKDSTYSLSSTLTLSKADYEKHKVYACEVTHQGLSSPVTKSFNRGEC
